Assay results published in patent US20190085093A1 (SEOUL NATIONAL UNIVERSITY R AND DB FOUNDATION, published 2019).
One block for each binder: values may come before it. Ends that are not written are not given here.

Legend:
Akt1 [1] = target: T1, Akt1 (UniProt P31749 1-480); experiment: immunofluorescence and PLA, A549 cells
T1 construct: Endogenous protein detected with an Akt1 antibody (LF-MA0245); also called endogenous Akt1
Experimental: A549 cells were placed in 8-well chamber cover glasses or high-precision cover glasses and were fixed with 3% paraformaldehyde for 10 minutes at room temperature, permeabilized with 0.5% Triton® X-100 (Sigma-Aldrich) for 5 min, blocked for 30 minutes. Then, the cells were incubated with primary or secondary antibodies in blocking solution (PBS with 0.1% saponin and 3% BSA). Alexa Fluor 647 conjugated anti-rabbit secondary antibody and an oxygen scavenging system (0.5 mg/ml glucose oxidase, 40 μg/ml catalase, 10% glucose, pH 7.4) were used for stochastic optical reconstruction microscopy (dSTORM) imaging. Before imaging, 30 mM mercaptoethylamine ([…]; Sigma) was added to obtain a final thiol concentration of 10-200 mM. All dSTORM and SIM images were obtained from Carl Zeiss ELYRA PS.1 (super-resolution microscopy), and all CLSM images were obtained from the Carl Zeiss LSM710 (confocal laser scanning microscope).
Immunofluorescence and PLA assays confirmed whether the F-BAR domain binds to Akt1 at the ICB and plasma membrane and FCHo1 and Akt1 interact in the midbody. […] Interaction of FCHo1 and Akt1 in the midbody was confirmed by PLA, and Calmodulin 1 was used as an ICB marker. The results are illustrated in FIG. 17.

[2] = target: T2, FCHo1-C-3×DDK (full-length wild-type FCHo1 with C-terminally fused 3×FLAG tag) (human, UniProt O14526 1-889); experiment: co-immunoprecipitation with anti-FLAG antibody
T2 construct: Expressed in A549 cells and pulled down with anti-FLAG gel; also called FCHo1-FLAG; wt FCHo1; not shown: C-terminal 3×DDK (3×FLAG) tag of the pCMV6-C-3×DDK vector
T2 sequence (looked up): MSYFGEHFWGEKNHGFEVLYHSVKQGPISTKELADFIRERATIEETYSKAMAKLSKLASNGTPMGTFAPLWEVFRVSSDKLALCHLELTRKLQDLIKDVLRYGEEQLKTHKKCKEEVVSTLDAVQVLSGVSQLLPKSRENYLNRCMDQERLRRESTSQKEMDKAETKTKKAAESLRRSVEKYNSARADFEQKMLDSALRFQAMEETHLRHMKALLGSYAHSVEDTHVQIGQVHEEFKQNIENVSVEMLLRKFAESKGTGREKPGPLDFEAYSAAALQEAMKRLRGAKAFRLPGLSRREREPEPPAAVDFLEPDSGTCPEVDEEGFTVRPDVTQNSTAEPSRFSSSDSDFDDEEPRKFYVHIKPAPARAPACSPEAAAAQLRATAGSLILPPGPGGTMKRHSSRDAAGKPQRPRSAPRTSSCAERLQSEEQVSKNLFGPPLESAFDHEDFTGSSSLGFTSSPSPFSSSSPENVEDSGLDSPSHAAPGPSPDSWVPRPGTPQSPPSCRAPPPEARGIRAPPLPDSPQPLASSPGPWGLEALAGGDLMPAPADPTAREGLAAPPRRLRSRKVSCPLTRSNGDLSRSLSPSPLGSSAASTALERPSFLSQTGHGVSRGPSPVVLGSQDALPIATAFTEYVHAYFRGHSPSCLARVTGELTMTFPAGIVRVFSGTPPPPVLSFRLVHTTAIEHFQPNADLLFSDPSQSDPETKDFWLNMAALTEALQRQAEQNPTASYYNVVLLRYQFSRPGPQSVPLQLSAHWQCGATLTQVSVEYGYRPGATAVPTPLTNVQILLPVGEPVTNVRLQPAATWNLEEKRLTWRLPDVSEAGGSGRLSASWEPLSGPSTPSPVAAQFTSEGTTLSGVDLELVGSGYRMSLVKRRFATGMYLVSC

Akt1 [3] = target: T1, Akt1; experiment: biotin peptide on streptavidin plate, cell lysate, detection with Akt1 antibody
From the text: To confirm the binding affinity between Akt1 and Akt1 motif-containing FCHo1 amino acid sequence-derived peptides, biotin was conjugated to peptides to complete the synthetization. The peptides were reacted and attached to on the streptavidin-attached plate. After treating with the cell lysates, the binding affinity of the peptide and Akt1 was confirmed by the Akt1 antibody. The experiment process and its result of confirming in vitro binding affinity of Akt1 according to respective peptides derived from FCHo1 binding sites are illustrated in FIG. 28.

T1 sequence (P31749 whole entry): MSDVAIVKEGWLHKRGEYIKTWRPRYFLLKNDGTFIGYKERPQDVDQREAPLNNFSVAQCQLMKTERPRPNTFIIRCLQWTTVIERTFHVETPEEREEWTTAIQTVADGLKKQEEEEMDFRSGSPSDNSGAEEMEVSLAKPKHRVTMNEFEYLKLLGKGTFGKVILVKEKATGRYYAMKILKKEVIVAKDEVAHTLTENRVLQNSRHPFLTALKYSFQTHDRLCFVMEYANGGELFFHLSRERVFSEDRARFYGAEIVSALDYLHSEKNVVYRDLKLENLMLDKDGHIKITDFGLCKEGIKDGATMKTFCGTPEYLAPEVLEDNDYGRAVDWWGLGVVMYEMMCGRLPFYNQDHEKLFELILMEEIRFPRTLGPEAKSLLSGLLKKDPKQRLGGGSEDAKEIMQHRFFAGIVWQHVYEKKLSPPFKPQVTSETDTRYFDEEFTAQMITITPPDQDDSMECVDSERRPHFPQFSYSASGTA

B2: CT-fragment (564-889aa) of FCHo1-HA (other, human, UniProt O14526 564-889, looked up)
chain: LRSRKVSCPLTRSNGDLSRSLSPSPLGSSAASTALERPSFLSQTGHGVSRGPSPVVLGSQDALPIATAFTEYVHAYFRGHSPSCLARVTGELTMTFPAGIVRVFSGTPPPPVLSFRLVHTTAIEHFQPNADLLFSDPSQSDPETKDFWLNMAALTEALQRQAEQNPTASYYNVVLLRYQFSRPGPQSVPLQLSAHWQCGATLTQVSVEYGYRPGATAVPTPLTNVQILLPVGEPVTNVRLQPAATWNLEEKRLTWRLPDVSEAGGSGRLSASWEPLSGPSTPSPVAAQFTSEGTTLSGVDLELVGSGYRMSLVKRRFATGMYLVSC
notes: Cleavage product of FCHo1-HA in the cells, seen on the blot of the co-IP; not shown: C-terminal 3×HA tag
binding result [2]: no binding

B3: peptide 562-571 of FCHo1 (RRLRSRKVSC), biotin-conjugated (peptide)
peptide: RRLRSRKVSC
modifications: also: biotin conjugated, position not given here
notes: Attached to a streptavidin plate by its biotin
binding result (Akt1 [3]): binds

Continued, values first:

binding result (Akt1 [1]): binds
B1: C-terminal (CT) fragment of FCHo1 cleaved at R563 (other, human, UniProt O14526 564-889, looked up)
chain: B2 chain
notes: Fragment in cells, seen by immunofluorescence and PLA with the α584-804 antibody

binding result (Akt1 [3]): binds
B4: peptide 560-571 of FCHo1 (PPRRLRSRKVSC), biotin-conjugated (peptide)
peptide: PPRRLRSRKVSC
modifications: also: biotin conjugated, position not given here
notes: as for B3
